Target: Human endothelial cells (ECV304)
Assay: inhibition of endothelial cell adhesion to pepsinized collagen type IV by soluble monomer

Substance	percent inhibition of cell adhesion
recombinant human type IV collagen NCl (α1) monomer (from UniProt P02462)	50%
recombinant type IV collagen NCl (α2) monomer (from UniProt P08572)	50%

From patent US20040132662A1
